According to patent publication US20230049732A1 (UNIVERSITY OF LOUISVILLE RESEARCH FOUNDATION, published 2023):

T1: KEYA368A369-VLPs of B19V (parvovirus B19 genotype 1 (mutated), UniProt P07299 228-781)
T1 construct: also called construct D
T1 chain: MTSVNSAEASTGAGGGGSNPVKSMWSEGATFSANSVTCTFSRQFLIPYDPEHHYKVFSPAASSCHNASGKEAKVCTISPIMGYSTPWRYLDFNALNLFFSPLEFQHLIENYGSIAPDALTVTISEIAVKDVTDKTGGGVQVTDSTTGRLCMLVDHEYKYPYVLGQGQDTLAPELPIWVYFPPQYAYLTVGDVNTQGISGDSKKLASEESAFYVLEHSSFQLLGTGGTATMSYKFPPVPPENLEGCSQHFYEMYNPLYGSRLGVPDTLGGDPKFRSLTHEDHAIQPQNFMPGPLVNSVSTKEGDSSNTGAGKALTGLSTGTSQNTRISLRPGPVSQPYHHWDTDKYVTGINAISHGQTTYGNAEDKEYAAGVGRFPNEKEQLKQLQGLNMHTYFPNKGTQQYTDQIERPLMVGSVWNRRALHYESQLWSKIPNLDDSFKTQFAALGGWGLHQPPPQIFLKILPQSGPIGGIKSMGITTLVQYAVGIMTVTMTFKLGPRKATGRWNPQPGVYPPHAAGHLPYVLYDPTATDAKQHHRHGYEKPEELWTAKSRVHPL

T2: QQW401TDQ-VLPs of B19V (parvovirus B19 genotype 1 (mutated), UniProt P07299 228-781)
T2 construct: also called construct B
T2 chain: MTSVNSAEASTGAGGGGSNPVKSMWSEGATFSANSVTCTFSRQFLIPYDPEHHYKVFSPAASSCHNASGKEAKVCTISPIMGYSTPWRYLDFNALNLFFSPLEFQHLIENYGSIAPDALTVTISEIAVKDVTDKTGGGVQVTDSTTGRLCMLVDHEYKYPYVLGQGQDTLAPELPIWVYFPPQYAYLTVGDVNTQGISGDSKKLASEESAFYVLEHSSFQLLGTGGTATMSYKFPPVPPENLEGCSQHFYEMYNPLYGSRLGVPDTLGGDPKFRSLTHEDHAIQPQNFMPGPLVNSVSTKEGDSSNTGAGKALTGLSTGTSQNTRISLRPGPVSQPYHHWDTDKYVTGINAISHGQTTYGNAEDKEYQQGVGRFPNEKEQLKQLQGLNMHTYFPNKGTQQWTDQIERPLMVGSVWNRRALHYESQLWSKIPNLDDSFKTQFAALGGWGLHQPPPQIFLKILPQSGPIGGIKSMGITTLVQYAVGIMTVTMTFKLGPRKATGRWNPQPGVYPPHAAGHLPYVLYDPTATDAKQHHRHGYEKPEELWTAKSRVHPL

T3: F401-VLPs of parvovirus B19 (parvovirus B19 genotype 1 (mutated), UniProt P07299 228-781)
T3 construct: also called F401-B19V; construct A
T3 chain: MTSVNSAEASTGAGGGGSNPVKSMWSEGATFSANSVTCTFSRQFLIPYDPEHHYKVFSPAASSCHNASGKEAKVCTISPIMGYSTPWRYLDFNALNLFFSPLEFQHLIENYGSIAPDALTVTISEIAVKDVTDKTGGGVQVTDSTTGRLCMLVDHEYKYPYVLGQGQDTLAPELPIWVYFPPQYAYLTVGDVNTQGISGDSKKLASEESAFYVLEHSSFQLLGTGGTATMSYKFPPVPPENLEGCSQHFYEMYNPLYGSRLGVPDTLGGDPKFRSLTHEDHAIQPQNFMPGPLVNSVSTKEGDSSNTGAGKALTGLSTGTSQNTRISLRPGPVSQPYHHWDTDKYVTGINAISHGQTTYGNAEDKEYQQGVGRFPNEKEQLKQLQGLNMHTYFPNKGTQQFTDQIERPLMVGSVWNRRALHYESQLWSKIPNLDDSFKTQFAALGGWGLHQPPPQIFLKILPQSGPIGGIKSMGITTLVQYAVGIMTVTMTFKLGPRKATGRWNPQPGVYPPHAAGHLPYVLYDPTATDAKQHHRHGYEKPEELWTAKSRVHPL

T4: N399N400F401TDT404-VLPs of parvovirus B19 (parvovirus B19 genotype 1 (mutated), UniProt P07299 228-781)
T4 construct: also called NNF401TDT-B19V; NNF401TDT
T4 chain: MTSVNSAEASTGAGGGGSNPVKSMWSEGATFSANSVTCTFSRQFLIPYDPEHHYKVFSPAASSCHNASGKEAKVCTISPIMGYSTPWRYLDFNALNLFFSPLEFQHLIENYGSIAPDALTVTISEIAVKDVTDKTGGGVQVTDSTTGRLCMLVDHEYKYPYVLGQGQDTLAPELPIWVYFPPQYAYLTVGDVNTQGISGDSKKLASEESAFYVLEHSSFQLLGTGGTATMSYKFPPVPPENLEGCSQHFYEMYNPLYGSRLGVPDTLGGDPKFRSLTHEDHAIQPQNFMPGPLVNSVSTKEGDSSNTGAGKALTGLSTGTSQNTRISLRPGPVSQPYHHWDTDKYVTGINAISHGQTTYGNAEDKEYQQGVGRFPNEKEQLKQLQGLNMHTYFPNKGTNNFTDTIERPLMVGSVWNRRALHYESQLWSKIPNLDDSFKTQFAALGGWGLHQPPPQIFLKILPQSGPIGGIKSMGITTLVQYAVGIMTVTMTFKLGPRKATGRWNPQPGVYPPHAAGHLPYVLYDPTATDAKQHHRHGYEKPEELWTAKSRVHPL


Key:
Assay in all cases: ELISA, intact VLPs coated, hybridoma supernatant
KEYA368A369-VLPs of B19V = molecular target: T1, KEYA368A369-VLPs of B19V
QQW401TDQ-VLPs of B19V = molecular target: T2, QQW401TDQ-VLPs of B19V
[1] = molecular target: T3, F401-VLPs of parvovirus B19
[2] = molecular target: T4, N399N400F401TDT404-VLPs of parvovirus …

Row | Binder | ELISA absorbance (405 nm) (KEYA368A369-VLPs of B19V) | ELISA absorbance (405 nm) (QQW401TDQ-VLPs of B19V) | ELISA absorbance (405 nm) [1] | ELISA absorbance (405 nm) [2]
1 | MAb #91 (antibody, V domains shown, Murine hybridoma antibody, supernatant; also called antibody 91) VH: EVQLQQSGPELVKPGASVKISCKASGYSFTDYFMNWVKQSHGKSLEWIGRINPYNGDSFYNQNFRGSVTLTVDKSSGTAHMELLSLTSEDSTVYYCGAYRYDGYAMDYWGQGTSVTVSS VL: DVVMTQTPLSLPVSLGDQASISCRSSQSLVHSDGNTYLHWYLQKPGQSPKLLIYKVSNRFSGVPDRFSGSGSGTDFTLKISRVEAEDLGVYFCSQSTHVPFTFGSGTKLEIK | 2.59 | 1.64 | 3.01 | 3.86
2 | MAb #25 (antibody, V domains shown, Murine hybridoma antibody, supernatant; also called antibody 25) VH: QVQLQQPGAELVRPGASVKLSCKASGYTFTNYWMHWVKQRPEQGLEWIGRIDPYDSETHYNQKFKDKAILTVDTSSNTAYMQLSSLTSEDSAVYYCTSYYYGSNYVWHFDVWGAGTTVTVSS VL: not shown | 2.79 | 1.53 | 3.82 | 3.26
